Test results published in US12083165B2, “Thymosin alpha 1 for use in treatment of cystic fibrosis” (SciClone Pharmaceuticals International (SG) PTE. LTD., priority 2015, dated 2024).

Columns and labels:
[1] = biological target: T1, CFTR (Homo sapiens, UniProt P13569, DEL508-508); assay: CFTR protein expression (band C) in HBE cells from CF patients; assay type: cell-based; conditions: 100 ng/ml Tα1 for 24 hours, cells from 5 CF patients
T1 construct: endogenous in cells; host or cells: primary HBE cells from lung transplants of CF patients
T1 sequence (P13569 with tags, fused parts or gaps DEL508-508): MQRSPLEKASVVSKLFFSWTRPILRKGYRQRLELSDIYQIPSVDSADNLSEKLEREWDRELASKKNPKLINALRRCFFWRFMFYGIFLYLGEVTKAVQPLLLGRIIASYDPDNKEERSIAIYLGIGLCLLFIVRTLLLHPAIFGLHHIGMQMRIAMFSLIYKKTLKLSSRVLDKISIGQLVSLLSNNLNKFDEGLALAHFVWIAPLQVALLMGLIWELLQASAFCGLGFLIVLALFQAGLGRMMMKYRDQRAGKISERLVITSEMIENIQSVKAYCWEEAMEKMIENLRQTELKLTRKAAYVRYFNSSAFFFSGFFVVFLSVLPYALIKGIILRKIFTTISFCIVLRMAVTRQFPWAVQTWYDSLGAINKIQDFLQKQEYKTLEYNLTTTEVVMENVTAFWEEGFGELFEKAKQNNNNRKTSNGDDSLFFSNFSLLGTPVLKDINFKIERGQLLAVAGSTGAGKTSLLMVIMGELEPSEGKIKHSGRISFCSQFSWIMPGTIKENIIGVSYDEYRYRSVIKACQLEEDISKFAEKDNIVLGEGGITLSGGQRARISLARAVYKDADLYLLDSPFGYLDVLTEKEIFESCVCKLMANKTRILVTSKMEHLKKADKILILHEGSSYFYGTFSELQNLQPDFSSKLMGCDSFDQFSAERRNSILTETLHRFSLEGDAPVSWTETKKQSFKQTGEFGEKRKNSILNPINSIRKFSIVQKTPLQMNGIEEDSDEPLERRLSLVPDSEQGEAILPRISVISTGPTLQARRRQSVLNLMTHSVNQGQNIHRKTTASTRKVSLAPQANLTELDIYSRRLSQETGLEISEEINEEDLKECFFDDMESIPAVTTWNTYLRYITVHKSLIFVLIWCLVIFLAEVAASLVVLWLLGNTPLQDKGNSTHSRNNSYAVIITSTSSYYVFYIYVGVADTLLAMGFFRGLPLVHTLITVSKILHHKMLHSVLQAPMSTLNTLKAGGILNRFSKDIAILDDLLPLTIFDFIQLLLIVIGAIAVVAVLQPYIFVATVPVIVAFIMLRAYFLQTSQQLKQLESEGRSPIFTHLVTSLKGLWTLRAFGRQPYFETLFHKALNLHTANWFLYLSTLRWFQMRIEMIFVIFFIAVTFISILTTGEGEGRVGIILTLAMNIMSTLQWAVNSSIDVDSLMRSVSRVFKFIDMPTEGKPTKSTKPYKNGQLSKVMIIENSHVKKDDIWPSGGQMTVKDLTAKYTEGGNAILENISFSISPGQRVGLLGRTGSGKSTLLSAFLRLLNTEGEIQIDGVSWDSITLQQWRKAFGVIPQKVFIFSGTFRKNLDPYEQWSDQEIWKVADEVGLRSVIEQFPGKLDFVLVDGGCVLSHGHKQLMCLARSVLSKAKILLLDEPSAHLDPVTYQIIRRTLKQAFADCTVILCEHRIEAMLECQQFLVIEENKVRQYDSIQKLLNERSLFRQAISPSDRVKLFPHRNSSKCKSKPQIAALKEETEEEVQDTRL
Description: (§1) Cells. Cell Lines and Cell Culture—Human bronchial epithelial (HBE) cells, homozygous for the […] mutation and its isogenic wild-type were obtained from lung transplants (CF patients) or lung resections (non-CF patients) (kindly provided by L J Galietta within the Italian Cystic Fibrosis Foundation). Cells were maintained at 37° C. in a humidified incubator in an atmosphere containing 5% CO2, and the experiments were done 5 days after plating (21, 22). Stable lentiviral-based transduction of the parental CFBE41o− cells (ΔF508/ΔF508), originally immortalized and characterized by Dr. D. Gruenert and co-workers (32) with either WT-CFTR or ΔF508-CFTR, was performed by Tranzyme, Inc. (Birmingham, AL). […]
CFTR Immunoblot Analysis. […] LiteAblotPlus chemiluminescence substrate (Euroclone S.p.A.), using ChemiDoc™ XRS+ Imagig system (Bio-Rad Laboratories) and blot quantification was obtained by densitometry image analysis using Image Lab 3.1.1 software (Bio-Rad).
The SV40 transformed CF airway epithelial cell line (CFBE41o−), homozygous for the ΔF508-CFTR mutation, was used (32). […] CFTR bands were quantified by densitometry and expressed as the C/B ratio. […]

[2] = biological target: ΔF508 CFTR (Homo sapiens, UniProt P13569, DEL508-508); assay: Chloride permeability by SPQ fluorescence assay upon forskolin stimulation, CFBE41o− cells; assay type: cell-based
ΔF508 CFTR, sequence (P13569 with tags, fused parts or gaps DEL508-508): as above
Description: as §1
The activity of Tα1, either alone or in combination with ivacaftor, has been comparatively assessed with that of lumacaftor on CFBE41o− cells expressing ΔF508 CFTR and on HBE cells from CF patients. To this purpose, cells were treated with Tα1 (100 ng/ml), VX-770 (1 μM) or VX-809 (3 μM) alone or in combination for 24 hours and assessed for CFTR protein expression and function. […] In terms of ion channel activity, Tα1, either alone or in combination with ivacaftor, increased the chloride permeability of ΔF508 CFTR cells between 60 to 70% relative to control (considering WT control as 100% reference value)(B, assessed by a fluorescence assay upon stimulation with fosforkolin, Fsk). […]

[3] = tested on: TMEM16A; assay: DNA microarray analysis of mice with pulmonary aspergillosis; assay type: in vivo; conditions: unpublished results

For “Ac-Ser-Asp-Ala-Ala-Val-Asp-Thr-Ser-Ser-Glu-Ile-Thr-Thr-Lys-Asp-Leu-Lys-Glu-Lys-Lys-Glu-Val-Val-Glu-Glu-Ala-Glu-Asn-O (Ac-SDAAVDTSSEITTKDLKEKKEVVEEAEN-OH; not fully specified; printed as Ac-Ser-Asp-Ala-Ala-Val-Asp-Thr-Ser-Ser-Glu-Ile-Thr-Thr-Lys-Asp-Leu-Lys-Glu-Lys-Lys-Glu-Val-Val-Glu-Glu-Ala-Glu-Asn-O; listed as Homo sapiens) [Tα1, naturally occurring polypeptide of 28 amino acid; supplied as purified sterile, lyophilized, acetylated polypeptide]”, the “CF patients whose HBE cells showed increased expression of CFTR (band C)” value [1] was 3 patients, the “chloride permeability of ΔF508 CFTR cells relative to control (WT control as 100%)” value ([2]; 100 ng/ml Tα1 for 24 hours, CFBE41o− cells, forskolin stimulation) was “approximately 70%” and the “ion channel activity compared to lumacaftor” value ([2]; CFBE41o− cells expressing ΔF508 CFTR, 24 hours) was “lower”. For the same substance, the “expression of TMEM16A in mice with pulmonary aspergillosis” value [3] was “greatly increased”.
